According to paper PMC4412574, “On-Off Kinetics of Engagement of FNI Modules of Soluble Fibronectin by β-Strand Addition” (PLoS ONE, 2015):
Peptide text beside a SMILES is read from it.

Assays:
plasma fibronectin (FN) [1] = target: plasma fibronectin (FN) (UniProt P02751); assay: fluorescence polarisation; stopped-flow with crossed polarizers, displacement: 10 nM AFpolypeptide pre-mixed 30 min with 100 nM FN or FN70K, then 1 uM of the same unlabeled polypeptide; single exponential fit; TBS with 100 mM NaCl, 25°C
[2] = target: FN70K fragment (N-terminal 70-kDa region of fibronectin); assay: SEC; data not shown: the same size exclusion experiment as for FN-AFFUD, with FN70K-AFFUD, FN-AFHADD or FN70K-AFHADD
plasma fibronectin (FN) [3] = target: plasma fibronectin (FN) (UniProt P02751); assay: as above
[4] = target: FN70K fragment (N-terminal 70-kDa region of fibronectin); assay: fluorescence polarisation; stopped-flow with crossed polarizers, direct binding at a single concentration: 10 nM AFpolypeptide mixed with 100 nM FN70K; kon from kobs and the koff of displacement (koff taken as 0 for FUD and HADD); TBS with 100 mM NaCl, 25°C
plasma fibronectin (FN) [5] = target: plasma fibronectin (FN) (UniProt P02751); assay: fluorescence polarisation; stopped-flow with crossed polarizers, direct binding: 10 nM AFpolypeptide mixed with 100, 200, 300, 400 or 500 nM FN; kobs against [FN], kon from the slope, koff from the y-intercept; TBS with 100 mM NaCl, 25°C
[6] = target: FN70K fragment (N-terminal 70-kDa region of fibronectin); assay: fluorescence polarisation + SEC; KD limit calculated as koff/kon from the stopped-flow on-rate and the upper limit of koff by chromatography
plasma fibronectin (FN) [7] = target: plasma fibronectin (FN) (UniProt P02751); assay: as above
[8] = target: FN70K fragment (N-terminal 70-kDa region of fibronectin); assay: fluorescence polarisation; KD calculated as koff/kon from the stopped-flow on-rate and the off-rate of the stopped-flow displacement
plasma fibronectin (FN) [9] = target: plasma fibronectin (FN) (UniProt P02751); assay: as above
[10] = target: FN70K fragment (N-terminal 70-kDa region of fibronectin); assay: fluorescence polarisation; stopped-flow with crossed polarizers, displacement: 10 nM AFpolypeptide pre-mixed 30 min with 100 nM FN or FN70K, then 1 uM of the same unlabeled polypeptide; single exponential fit; TBS with 100 mM NaCl, 25°C
plasma fibronectin (FN) [11] = target: plasma fibronectin (FN) (UniProt P02751); assay: SEC; 400 nM FN and 40 nM AFFUD or AFBbk32 mixed 30 min in TBS with 100 mM NaCl, Superose 6 10/300 at 0.5 ml/min; FN by A280, AFpolypeptide by fluorescence; koff from the lower limit of the half-life
plasma FN [12] = target: T1, plasma FN (Homo sapiens, UniProt P02751); assay: Stopped-flow fluorimetry (crossed polarizers), direct binding of AFpolypeptide to a series of FN concentrations; conditions: as restated in text from Table 1; read-out: k on of FN-AFpolypeptide interaction
Method: (§1) Measurements were in TBS with 100mM NaCl at 25°C. Reactants separated in two syringes were injected by SFA-20 rapid kinetics accessory (Hi-Tech Scientific, Salisbury, England) into the cuvette for mixing in QuantaMaster 300 spectrofluorimeter (Photon Technology International, Edison, New Jersey) with excitation and emission polarizers of 90 degree. The excitation and emission wavelength were 485nm and 535 nm respectively. Upon mixing the fluorescence intensity were recorded at a rate of 10 points/sec during the reaction procedure. In the absence of FN or FN70K, there was no change in fluorescence polarization for any of the AFpolypeptides.
In direct binding assays, AFFUD, AFHADD, AFFRD or AFBbk32, 10 nM, was mixed with a series of FN concentrations or with FN70K at 100 nM. AFΔBbk32 was studied only with FN at 100 nM. For each experiment, four or five curves were generated, and k obs was calculated by F(t) = Fmin+(Fmax-Fmin)e^-kobst (1) where F(t) is fluorescence intensity at time point t. Fmax or Fmin is maximum or minimum fluorescence intensity, and the rate constant k is k obs. […]
Stopped-flow fluorimetry with crossed-polarizers was performed to study on-off kinetics of the FN-AFpolypeptide interactions. Upon mixing 10 nM AFFUD, AFHADD, AFFRD or AFBbk32 with increasing concentration (100, 200, 300, 400, or 500 nM) of FN, decreases of fluorescence intensity were observed (Fig 3). […]

FN70K fragment = target: T2, FN70K fragment (Homo sapiens, UniProt P02751); assay: Size exclusion chromatography of FN70K-AFpolypeptide complex; type: binding; conditions: data not shown, read-out: k off estimated from size exclusion chromatography
T2 construct: the FN70K domain comprising the N-terminal ^1-9FNI and ^1-2FNII modules of FN; from tissue; host or cells: proteolytic fragment of FN
Method: (§2) Fractions of 0.5 ml were collected and assayed. FN was monitored by absorbance at 280 nm by NanoDrop 2000 UV-Vis Spectrophotometer (Thermo Scientific, Wilmington, DE) and AFpolypeptide by Tecan Genios Pro microplate reader with excitation 485 nm and emission 535 nm. FN, AFFUD or AFBbk32 was analyzed by itself as a control. The k off of FN-AFFUD complex was estimated by estimating the lower limit of half-life (t1/2) of complex decay and the following equation: t1/2 = 0.693/koff (4)
(§3) To corroborate the estimates from stopped-flow fluorimetry of k off for the FN-FUD or FN-Bbk32 interaction by a second method, size exclusion chromatography of the FN-AFFUD or FN-AFBbk32 complex was carried out. […] Elution patterns of FN alone (Fig 6C), AFFUD alone (Fig 6D), and AFBbk32 alone (Fig 6E) are also shown. FN eluted at 20 min. We estimate, therefore, that the half-life of FN-AFFUD is longer than 20 min and, according to Eq, the k off of FN-AFFUD is < 10^-3 s^-1, which is more than 20-fold slower than that estimated for FN-AFBbk32 by Eq or the displacement experiment (Table 1).

plasma FN [13] = target: T1, plasma FN; assay: Size exclusion chromatography of FN-AFpolypeptide complex; type: binding; conditions: from half-life lower limit by Eq 4, read-out: k off estimated from size exclusion chromatography
Method: as §2, §3
Fig 6 FPLC size exclusion of FN-AFFUD or FN-AFBbk32 complex. […] Absorbance at 280nm (A^280nm), and emission at 535 nm upon excitation at 485 nm (E^535nm) were measured to estimate, respectively, concentration of FN and AFpolypeptide and expressed relative to the values in starting material. […]

plasma FN [14] = target: T1, plasma FN; assay: Stopped-flow displacement of AFpolypeptide from FN complex by unlabeled polypeptide (or size exclusion chromatography); type: binding; conditions: 1 μM unlabeled polypeptide, over 180 sec (Fig 3E-H)
Method: as §1
In displacement assays, unlabeled FUD, HADD, FRD, Bbk32, or ΔBbk32 in 10-fold molar excess of FN or FN70K was mixed with complex of AFpolypeptide and FN or FN70K. For ΔBbk32, only displacement from FN was measured. The k off value is calculated by Ft = Fmin+Fmax-Fmin1-e^-kofft (3) in which k off is the dissociation rate constant. The k on of FN70K-AFpolypeptide was determined by Eq based on [FN70K] and the k off of FN70K-AFpolypeptide obtained from Eq.
Fractions of 0.5 ml were collected and assayed. FN was monitored by absorbance at 280 nm by NanoDrop 2000 UV-Vis Spectrophotometer (Thermo Scientific, Wilmington, DE) and AFpolypeptide by Tecan Genios Pro microplate reader with excitation 485 nm and emission 535 nm. […]

plasma fibronectin (FN) [15] = target: plasma fibronectin (FN) (UniProt P02751); assay: ELISA; competitive: FN coated on 96-well plate (50 ul, 20 nM); 0.5 nM b-FUD or b-Bbk32 mixed with unlabeled FUD or Bbk32 at 1, 10, 100 or 1000 nM, 1 h; bound biotinylated polypeptide detected with enzyme-conjugated (strept)avidin
plasma fibronectin (FN) [16] = target: plasma fibronectin (FN) (UniProt P02751); assay: fluorescence polarisation; stopped-flow with crossed polarizers, displacement: 10 nM AFpolypeptide pre-mixed 30 min with 100 nM FN or FN70K, then 1 uM of the same unlabeled polypeptide; single exponential fit; TBS with 100 mM NaCl, 25°C; remark: listed apart in the source

T1 sequence (P02751 32-609): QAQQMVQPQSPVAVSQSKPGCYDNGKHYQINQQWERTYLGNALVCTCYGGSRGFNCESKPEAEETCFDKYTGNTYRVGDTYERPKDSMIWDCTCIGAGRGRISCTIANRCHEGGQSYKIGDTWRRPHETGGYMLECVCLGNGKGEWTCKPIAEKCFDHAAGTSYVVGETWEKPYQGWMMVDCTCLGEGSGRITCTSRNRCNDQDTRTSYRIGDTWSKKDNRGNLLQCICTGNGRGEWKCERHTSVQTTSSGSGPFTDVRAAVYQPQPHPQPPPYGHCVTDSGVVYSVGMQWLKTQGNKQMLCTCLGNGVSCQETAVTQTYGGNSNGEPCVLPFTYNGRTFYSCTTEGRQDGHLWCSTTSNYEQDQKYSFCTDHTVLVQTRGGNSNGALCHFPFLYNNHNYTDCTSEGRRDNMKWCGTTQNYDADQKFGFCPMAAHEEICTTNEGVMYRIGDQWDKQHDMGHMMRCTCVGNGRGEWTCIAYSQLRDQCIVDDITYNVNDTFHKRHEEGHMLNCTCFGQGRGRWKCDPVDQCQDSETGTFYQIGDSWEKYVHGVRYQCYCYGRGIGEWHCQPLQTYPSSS
T2 sequence (P02751 32-609 limits assumed): as the sequence (P02751 32-609) above

In the case of “AFHADD (HADD labeled with Alexa 488 on the N-terminal cysteine) (domain or fragment)”, the percent of the fluorescence intensity decrease reversed over 180 sec by 1 uM unlabeled polypeptide (plasma fibronectin (FN) [1]) is reported as under 10%, the koff [2] is reported as under 0.001 s⁻¹ and the koff (plasma fibronectin (FN) [3]) is reported as under 0.001 s⁻¹. It also gave a kon [4] of 9.7e+06 M⁻¹ s⁻¹, a kon (plasma fibronectin (FN) [5]) of 430000 M⁻¹ s⁻¹ and a Kd [6] of under 0.1 nM. The Kd (plasma fibronectin (FN) [7]) was under 2.3 nM.
“AFBbk32 (Bbk32 labeled with Alexa 488 on the N-terminal cysteine) (domain or fragment)” showed a Kd [8] of 14 nM, a Kd (plasma fibronectin (FN) [9]) of 140 nM and a koff [10] of 0.033 s⁻¹. The koff (plasma fibronectin (FN) [1]) was 0.025 s⁻¹, the kon [4] was 2.4e+06 M⁻¹ s⁻¹ and the koff (plasma fibronectin (FN) [5]) was 0.036 to 0.041 s⁻¹. The kon (plasma fibronectin (FN) [5]) was 180000 M⁻¹ s⁻¹.
“AFFUD (FUD labeled with Alexa 488 on the N-terminal cysteine) (domain or fragment)” gave a percent of the fluorescence intensity decrease reversed over 180 sec by 1 uM unlabeled polypeptide (plasma fibronectin (FN) [1]) of under 10%, a koff [2] of under 0.001 s⁻¹ and a kon [4] of 3.9e+06 M⁻¹ s⁻¹. The kon (plasma fibronectin (FN) [5]) was 390000 M⁻¹ s⁻¹, the Kd [6] was under 0.26 nM and the Kd (plasma fibronectin (FN) [7]) was under 2.6 nM. The half-life of the complex (plasma fibronectin (FN) [11]) was over 20 min, the koff (plasma fibronectin (FN) [11]) was under 0.001 s⁻¹ and the percent of AFFUD eluting with FN (plasma fibronectin (FN) [11]) was 100%.
Work on `C[C@H](N)C(=O)N[C@@H](Cc1ccccc1)C(=O)N[C@@H](Cc1c[nH]cn1)C(=O)N[C@@H](C)C(=O)N[C@@H](CC(=O)O)C(=O)N[C@@H](CC(=O)O)C(=O)O` [AFHADD] (H-AFHADD-OH) yielded a kon (plasma FN [12]) of 430000 M⁻¹ s⁻¹, a koff (FN70K fragment) of under 0.001 s⁻¹ and a koff (plasma FN [13]) of under 0.001 s⁻¹. For the same molecule, the “reversal of fluorescence intensity decrease on displacement” value (plasma FN [14]) was “less than 10%”.
Molecule “Bbk32, unlabeled (version with the N-terminal cysteine) (domain or fragment)” has an IC50 (plasma fibronectin (FN) [15]) of 30 nM and a percent of b-FUD binding to FN left at 1000 nM Bbk32 (plasma fibronectin (FN) [15]) of over 60%.
For “FUD, unlabeled (version with the N-terminal cysteine) (domain or fragment)”, the IC50 (plasma fibronectin (FN) [15]) was 10 nM.
In the case of “AFFRD (FRD labeled with Alexa 488 on the N-terminal cysteine) (domain or fragment)”, the Kd [8] is reported as 3.1 nM, the Kd (plasma fibronectin (FN) [9]) is reported as 70 nM and the koff [10] is reported as 0.013 s⁻¹. For the same molecule, the koff (plasma fibronectin (FN) [1]) was 0.021 s⁻¹, the kon [4] was 4.1e+06 M⁻¹ s⁻¹ and the koff (plasma fibronectin (FN) [16]) was 0.02 s⁻¹. The koff (plasma fibronectin (FN) [5]) was 0.027 to 0.039 s⁻¹ and the kon (plasma fibronectin (FN) [5]) was 290000 M⁻¹ s⁻¹.
